According to article doi:10.1101/2025.09.11.675469:
Like-named read-outs stand apart in the source and are kept apart here.

T1: LIN28A (UniProt Q9H9Z2 1-209)
T1 sequence: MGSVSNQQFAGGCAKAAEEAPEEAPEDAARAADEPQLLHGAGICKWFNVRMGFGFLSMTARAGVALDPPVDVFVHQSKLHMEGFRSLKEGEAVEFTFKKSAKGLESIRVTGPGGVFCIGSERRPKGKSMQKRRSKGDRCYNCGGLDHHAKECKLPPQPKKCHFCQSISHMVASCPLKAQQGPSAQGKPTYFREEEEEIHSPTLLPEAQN


Key:
[1] = target: T1, LIN28A; assay: EMSA
[2] = target: T1, LIN28A; assay: EMSA; remark: listed apart in the source

Row | Binder | binding result [1] | binding result [2]
1 | GGGACAAGUGGUCUGGGACAGGGAGGAGCAAC (structured_RNA) [HOXB9 original] | binds | 
2 | GGGACAAGUGGUCUGGGACAGGGAGGAGCAAC (structured_RNA, one m6A; position marked only by red colour (not recoverable from text)) [HOXB9 m6A] |  | binds
